Assay results taken from the RNAGym collection of RNA variant scans (doi:10.7554/elife.80360).

B1: Hairpin Ribozyme (parent)
chain: GUCCUCUUUCACGUGCGCGUGAAAGAGAGAAGUGAACCAGAGAAACACACGUUGUGGUAUAUUACCUGGUA

Variants of: B1
Assay: self-cleavage, relative activity (ratio to wild type); higher = more cleavage; co-transcriptional

| Variant | self-cleavage |
| --- | --- |
| U2C U67C | 0.0838 |
| G1C G40A | 0.0839 |
| G1C G40U | 0.202 |
| U2A U20G | 0.201 |
| U2C U58C | 0.175 |
| U2G G34C | 0.736 |
| U2G G21A | 0.265 |
| U2A A49G | 0.188 |
| U2C C66G | 0.0316 |
| U2C C66A | 0.0248 |
| G1U C48G | 0.0484 |
| U2G A30G | 0.0671 |
| G1U G19C | 0.105 |
| G1U G19U | 0.134 |
| U2G U14G | 0.322 |
| U2C G56U | 0.178 |
| U2A G19U | 0.244 |
| G1U A28C | 0.0863 |
| U2A G17C | 0.22 |
| U2G U5G | 0.0759 |
| U2C G29U | 0.0528 |
| U2C G29C | 0.16 |
| G1C G56U | 0.293 |
| U2A U7C | 0.273 |

| Variant | self-cleavage |
| --- | --- |
| U2A U7G | 0.197 |
| U2A G32C | 0.0974 |
| G1U U33C | 0.173 |
| G1U C38A | 0.154 |
| U2A C6U | 0.182 |
| U2A C6G | 0.247 |
| U2A C6A | 0.238 |
| U2A U14G | 0.235 |
| U2A U14A | 0.174 |
| U2A G34A | 0.319 |
| U2A G34C | 0.501 |
| U2A C3A | 0.401 |
| U2C U9A | 0.109 |
| U2C U9C | 0.139 |
| U2C U9G | 0.0171 |
| U2C G27C | 0.153 |
| G1C U20A | 0.175 |
| G1U A31G | 0.0331 |
| G1U A31C | 0.0695 |
| U2G C12G | 0.184 |
| U2G U33A | 0.115 |
| U2A C10G | 0.238 |
| U2A C10U | 0.208 |
| U2A C10A | 0.132 |

| Variant | self-cleavage |
| --- | --- |
| U2C A30G | 0.349 |
| G1U C10A | 0.151 |
| G1U C10U | 0.132 |
| G1U A11C | 0.0545 |
| C3A A11G | 0.686 |
| C3A A11C | 0.618 |
| U2C A49U | 0.141 |
| U2C U14C | 0.359 |
| U2G U67A | 0.139 |
| U2A A11U | 0.269 |
| G1U G57C | 0.145 |
| G1U G57U | 0.125 |
| U2A A24C | 0.134 |
| G1U A26U | 0.068 |
| G1U A26C | 0.103 |
| U2G A36C | 0.208 |
| U2G A36G | 0.274 |
| U2A C65G | 0.146 |
| U2A A71G | 0.405 |
| G1U C18A | 0.157 |
| C3A A24G | 0.704 |
| G1U A23G | 0.183 |
| G1U A23C | 0.0726 |
| G1C U33C | 0.134 |

| Variant | self-cleavage |
| --- | --- |
| G1C U33G | 0.228 |
| U2C U63G | 0 |
| U2C U63C | 0.109 |
| U2G U8A | 0.295 |
| G1C G54U | 0.274 |
| G1C G54C | 0.072 |
| U2C C48A | 0.0257 |
| U2G A22G | 0.264 |
| U2G A22C | 0.354 |
| U2G G19U | 0.336 |
| G1C U55G | 0.132 |
| U2A G56U | 0.179 |
| G1U U63A | 0.215 |
| G1U U63C | 0.181 |
| G1U U53C | 0.179 |
| U2G G29A | 0.168 |
| G1U C66U | 0.0959 |
| U2G U7G | 0.35 |
| U2G U7A | 0.255 |
| U2G U7C | 0.384 |
| G1U A39C | 0.118 |
| G1U A39U | 0.0669 |
| U2G C46A | 0.121 |
| U2C G32A | 0.138 |

| Variant | self-cleavage |
| --- | --- |
| U2C G32C | 0.174 |
| G1U U58G | 0.253 |
| U2A A22U | 0.208 |
| G1U U20C | 0.203 |
| G1U U20G | 0.0885 |
| U2G A71G | 0.307 |
| U2C G40U | 0.103 |
| G1U G56A | 0.127 |
| U2G C4U | 0.15 |
| U2G C4A | 0.242 |
| G1C G32U | 0.171 |
| U2G C37A | 0.131 |
| U2G C37U | 0.319 |
| U2C G25U | 0.134 |
| U2C G25A | 0.195 |
| U2A C37A | 0.161 |
| U2G A39C | 0.177 |
| U2G A26G | 0.277 |
| G1U G54A | 0.0766 |
| G1U G54U | 0.141 |
| U2G C48U | 0.117 |
| U2A U33C | 0.0635 |
| U2A U33G | 0.151 |
| U2A C16G | 0.156 |

| Variant | self-cleavage |
| --- | --- |
| U2G C50G | 0.1 |
| U2G C50U | 0.157 |
| U2A C50G | 0.189 |
| U2G G17C | 0.367 |
| U2C U5C | 0.0555 |
| U2C U5G | 0.0932 |
| U2C G15C | 0.243 |
| U2G U60G | 0.278 |
| U2C A41C | 0.0362 |
| G1U A45C | 0.126 |
| G1U A45G | 0.0992 |
| G1U A45U | 0.228 |
| U2C A39U | 0.249 |
| U2G U9C | 0.231 |
| C3A A23C | 0.484 |
| C3A A23U | 0.619 |
| G1C U63A | 0.194 |
| G1C U63C | 0.285 |
| U2C A64G | 0.123 |
| G1C U53C | 0.239 |
| U2A A35U | 0.174 |
| U2A A35G | 0.225 |
| U2A A35C | 0.374 |
| U2G U63A | 0.149 |

| Variant | self-cleavage |
| --- | --- |
| U2G A35U | 0.27 |
| U2C U55C | 0.0641 |
| U2C U55G | 0.0647 |
| U2G G54A | 0.114 |
| U2C G19U | 0.161 |
| U2C A59U | 0.108 |
| U2A G25A | 0.259 |
| G1C U62C | 0.0543 |
| G1U C12A | 0.0913 |
| U2G A24C | 0.293 |
| U2G A24G | 0.293 |
| U2G A24U | 0.238 |
| G1U A36C | 0.143 |
| G1U A43U | 0.142 |
| G1U A43G | 0.0972 |
| G1U A43C | 0.169 |
| G1U G42C | 0.0939 |
| G1U G42A | 0.121 |
| G1U G42U | 0.162 |
| U2C C50U | 0.252 |
| U2C A11G | 0.172 |
| U2A G29U | 0.111 |
| G1U U5G | 0.194 |
